According to patent US5994105:

Target: commercially available renin (SIGMA)
Settings: scale: % remaining renin activities

## rat acylglucosamine 2-epimerase obtained in example 4 (from UniProt P51607) (enzyme)
  Remaining renin activities (%): 48
